Entries after “also recorded” stand apart in the source; their conditions may differ.
Tests used:
K562 cells [1] = experiment: Proliferation/viability of transfected K562 cells (trypan blue exclusion); assay type: cell-based, human; conditions: for proliferation/viability of K562 cells: trypan blue exclusion
Procedure: K562 cells, human leukemia Bcr-Abl^+ cells (gifted from Kojo Elenitoba-Johnson, University of Michigan), were grown in RPMI 1640 media supplemented with 10% FBS, 1% penicillin-streptomycin-glutamine, and 0.1% gentamicin (complete medium). […] Transfections were carried out two days following cell passaging. Then, 2.0×10^6 cells were collected and transfected with 6 μg pf pEGFP, pEGFP-CC^mut3, pmCherry, or pmCherry-CC^mut3 according to the Cell Line Nucleofector Kit V protocol, program T-013, using the Amaxa Nucleofector II (Lonza Group, Basel, Switzerland).
Cell counts were performed using a standard light microscope.
Two days following cell passaging, 2.0×10^6 cells were collected by centrifugation at 500×g for 10 min for each transfection group. Following cell collection, 6 lig DNA (pEGFP, pEGFP-CC, pEGFP-CCmut3, pEGFP-Helix2WT, pEGFP-Helix2mut3, pmCherry, pmCherry-CCmut3, or pmCherry-CappedHelix2mut3) was transfected into cells according to the Cell Line Nucleofector® Kit V protocol (program T-013) using the Amaxa Nucleofector II (Lonza Group, Basel, Switzerland). Following transfection, the DNA/cell mixture was added to 10 mL Complete RPMI 1640 media and allowed to incubate at 37° C. for 24, 48, or 72 h until analysis, depending on the assay.
Forty-eight or 72 h following transfection, 100 μL of treated K562 or Ba/F3-p210 cells was mixed with 100 μL trypan blue solution (Life Technologies). The numbers of viable cells (those impermeable to the trypan blue dye) from four different quadrants in an INCYTO™ C-CHIP™ Neubauer hemacytometer (VWR International, Radnor, Pa., USA) were counted using a standard light microscope. Quadrant counts were then averaged to obtain the number of viable cells per mL. For experiments using the Helix2mut3 construct, counts were performed on one aliquot per transfection (n=3 in replicate). In experiments involving the CappedHelix2mut3 construct, counts were performed three times using separate 100 pt aliquots from one transfection (n=1 in triplicate).

parental Ba/F3 cells = experiment: Annexin V/7-AAD apoptosis assay in transfected parental Ba/F3 cells; assay type: cell-based, mouse; conditions: 72 h, CCmut3 vs EV
Procedure: For analysis of apoptosis and cell death, cells were pelleted and resuspended in Annexin V-binding buffer (BD Biosciences), stained with anti-Annexin V-APC (BD Biosciences or Life Technologies) and 7-AAD (BD Biosciences or Life Technologies) and analyzed on a BD FACSCanto flow cytometer. In addition to the APC and 7-AAD channels, GFP- and mCherry-positive cells were also recorded.
For analysis of apoptosis and necrotic cell death, cells were pelleted and resuspended in Annexin V-binding buffer (BD Biosciences), stained with anti-Annexin V-APC and 7-AAD (BD Biosciences or Life Technologies) and analyzed on a BD FACSCanto flow cytometer. In addition to the APC and 7-AAD channels, GFP- and mCherry-positive cells were also recorded.

K562 cells [2] = experiment: Colony forming assay of protein-treated K562 cells; assay type: cell-based, human; conditions: proteins 30 μM, imatinib 1.0 μM; colonies counted after 7 days
Procedure: This experiment was carried out as before with the modifications noted below. […] 1×10^3 cells (in 1.1 mL) were seeded in a 6-well plate (CellStar), in duplicate for each treatment. 7 days after seeding cells, colonies were counted in a […] area per well. Independent treatments were tested 3 times in duplicate (n=3). All reagents for the CFA were purchased from Stem Cell Technologies, Vancouver, BC, Canada.

Ba/F3-P210 cells = experiment: 7-AAD and Annexin V staining of protein-treated Ba/F3-P210 cells; assay type: cell-based, mouse; conditions: proteins 30 μM, imatinib 2.5 μM; 48 hours post treatment
Procedure: 0.5 μL of 1 mM 7-AAD (Invitrogen) was added to each sample, followed by a 45 minute incubation on ice. […] Analysis was performed using the FACS Canto-II (BD BioSciences, University of Utah Core Facility) with FACS Diva software. 7-AAD and APC were excited at 488 and 635 nm wavelengths, and emissions were detected at 660 nm. Percentage of apoptosis/necrosis was calculated by the percentage of cells that stained positive for 7-AAD and/or APC. Independent treatments were tested three times (n=3).

B1: CCmut3: modified Bcr-Abl coiled-coil domain (residues 1-72) with mutations C38A, K39E, S41R, L45D, E48R, Q60E (protein)
chain: MVDPVGFAEAWKAQFPDSEPPRMELRSVGDIEQELERAEARIRRDEQRVNQERFRMIYLETLLAKEKKSYDR
**Q.** What does the source list for B1?
**A.** proliferation/viability of K562 cells (K562 cells [1]; 48 h following transfection, vs EGFP control, n=3): statistically significant decrease in the proliferation of K562 cells; proliferation/viability of K562 cells (K562 cells [1]; 72 h following transfection, vs mCherry control, n=1): potent inhibition of cell proliferation; inhibition of cell proliferation of K562 cells (K562 cells [1]; transfected, vs EGFP and WT control (FIG. 9)): inhibits proliferation; also recorded: significantly greater inhibition; apoptosis, in words (parental Ba/F3 cells): no effect on parental Ba/F3 cells; also recorded: no effect on the parental cell line; apoptosis, in words (parental Ba/F3 cells; listed as CC^mut3): not affected; also recorded: no effect on the parental cells; colony forming (transformative ability) (K562 cells [2]): ineffective at reducing cell proliferation and colony forming compared to untreated cells; induction of apoptosis/necrosis (Ba/F3-P210 cells): not statistically different from the untreated control

— patent publication US10494417B2, “Peptide inhibitors of BCR-ABL oligomerization” (University of Utah Research Foundation, priority 2014, dated 2019)
